Experimental data taken from patent publication US20070160987A1.

Molecular target: endogenous human CXC chemokine receptor subtype 3 (CXCR3) (human) (UniProt P49682)
Experiment: cell-based or functional assay

Sequence of UniProt P49682 (P49682 whole entry): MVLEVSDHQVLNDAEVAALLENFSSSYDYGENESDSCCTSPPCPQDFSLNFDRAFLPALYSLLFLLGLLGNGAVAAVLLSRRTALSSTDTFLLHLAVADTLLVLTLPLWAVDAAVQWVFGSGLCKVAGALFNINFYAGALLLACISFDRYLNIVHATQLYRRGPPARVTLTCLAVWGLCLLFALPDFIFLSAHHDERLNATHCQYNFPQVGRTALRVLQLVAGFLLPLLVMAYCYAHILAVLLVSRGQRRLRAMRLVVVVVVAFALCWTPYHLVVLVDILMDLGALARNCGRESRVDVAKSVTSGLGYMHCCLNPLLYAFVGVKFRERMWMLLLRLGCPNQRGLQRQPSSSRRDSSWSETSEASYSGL

Substance	EC50, pigment aggregation in pre-dispersed (MSH-treated) melanophores transfected with the receptor [nM]
γ-interferon inducible protein-10 (IP-10) (from UniProt P02778 22-98) (ligand)	0.15
monokine inducible γ-interferon (Mig) (from UniProt Q07325 23-125) (ligand)	0.29
